Data as given in the supplement of paper PMC10065799, “High-throughput profiling of sequence recognition by tyrosine kinases and SH2 domains using bacterial peptide display” (eLife, 2023).

Columns and labels:
FGFR1 = FGFR1 (UniProt P11362); experiment: phosphorylation enrichment, bacterial display (enrichment ratio); higher = better substrate or ligand; peptides without Tyr show the background
EPHB2 = EPHB2 (UniProt P29323); experiment: as above
Fer (mouse) = experiment: as above
Jak2 = Jak2 (UniProt O60674); experiment: as above
Fes = Fes (UniProt P07332); experiment: as above
MERTK = MERTK (UniProt Q12866); experiment: as above
EPHB1 = EPHB1 (UniProt P54762); experiment: as above
Fyn = Fyn (UniProt P06241); experiment: as above
c-Abl (mouse) = experiment: as above
c-Src = experiment: as above
Hck = Hck (UniProt P08631); experiment: as above
FGFR3 = FGFR3 (UniProt P22607); experiment: as above
AncSZ = experiment: as above
Grb2 SH2 = Grb2 SH2 (UniProt P62993); experiment: SH2 binding enrichment of the phosphorylated peptide, bacterial display (enrichment ratio); higher = better substrate or ligand; peptides without Tyr show the background
SHP2-C SH2 = experiment: as above
c-Src SH2 = experiment: as above
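Wherever SH2 binding enrichment of the phosphorylated peptide, bacterial display is given: peptide library displayed on the E. coli surface as eCPX fusions, selected cells deep-sequenced, score is each peptide's frequency after selection divided by its frequency in the input.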
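Wherever phosphorylation enrichment, bacterial display is given: 11-residue human phosphosite peptides and single-mutation variants displayed on the E. coli surface, counted by deep sequencing, each peptide's frequency after selection divided by its frequency in the unselected input library; frequency after pTyr selection over input frequency; kinase dosed for 20-30% of maximal phosphorylation in three min.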

Fes, sequence (P07332 whole entry, looked up): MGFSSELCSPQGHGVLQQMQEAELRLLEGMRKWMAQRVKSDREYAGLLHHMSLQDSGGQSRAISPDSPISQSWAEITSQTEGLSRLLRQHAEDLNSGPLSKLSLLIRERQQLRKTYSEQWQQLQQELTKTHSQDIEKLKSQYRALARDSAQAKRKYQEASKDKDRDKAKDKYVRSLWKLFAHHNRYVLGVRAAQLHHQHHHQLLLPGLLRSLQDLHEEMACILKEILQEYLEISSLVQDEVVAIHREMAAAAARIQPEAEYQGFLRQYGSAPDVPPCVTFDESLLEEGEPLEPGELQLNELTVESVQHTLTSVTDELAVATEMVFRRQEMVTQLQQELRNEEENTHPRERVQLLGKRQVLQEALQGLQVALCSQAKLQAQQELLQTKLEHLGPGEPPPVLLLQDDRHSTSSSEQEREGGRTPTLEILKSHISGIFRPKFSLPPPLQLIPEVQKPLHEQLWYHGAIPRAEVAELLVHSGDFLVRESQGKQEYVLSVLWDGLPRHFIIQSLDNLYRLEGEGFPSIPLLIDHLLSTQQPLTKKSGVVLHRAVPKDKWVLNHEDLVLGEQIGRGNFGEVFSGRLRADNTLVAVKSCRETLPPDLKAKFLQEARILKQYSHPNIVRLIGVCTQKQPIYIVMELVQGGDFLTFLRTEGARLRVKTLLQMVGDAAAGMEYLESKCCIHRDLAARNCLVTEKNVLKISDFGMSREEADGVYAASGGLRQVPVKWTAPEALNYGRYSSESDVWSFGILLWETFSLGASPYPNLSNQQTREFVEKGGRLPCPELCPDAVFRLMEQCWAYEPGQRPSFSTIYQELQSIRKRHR
EPHB1, sequence (P54762 whole entry, looked up): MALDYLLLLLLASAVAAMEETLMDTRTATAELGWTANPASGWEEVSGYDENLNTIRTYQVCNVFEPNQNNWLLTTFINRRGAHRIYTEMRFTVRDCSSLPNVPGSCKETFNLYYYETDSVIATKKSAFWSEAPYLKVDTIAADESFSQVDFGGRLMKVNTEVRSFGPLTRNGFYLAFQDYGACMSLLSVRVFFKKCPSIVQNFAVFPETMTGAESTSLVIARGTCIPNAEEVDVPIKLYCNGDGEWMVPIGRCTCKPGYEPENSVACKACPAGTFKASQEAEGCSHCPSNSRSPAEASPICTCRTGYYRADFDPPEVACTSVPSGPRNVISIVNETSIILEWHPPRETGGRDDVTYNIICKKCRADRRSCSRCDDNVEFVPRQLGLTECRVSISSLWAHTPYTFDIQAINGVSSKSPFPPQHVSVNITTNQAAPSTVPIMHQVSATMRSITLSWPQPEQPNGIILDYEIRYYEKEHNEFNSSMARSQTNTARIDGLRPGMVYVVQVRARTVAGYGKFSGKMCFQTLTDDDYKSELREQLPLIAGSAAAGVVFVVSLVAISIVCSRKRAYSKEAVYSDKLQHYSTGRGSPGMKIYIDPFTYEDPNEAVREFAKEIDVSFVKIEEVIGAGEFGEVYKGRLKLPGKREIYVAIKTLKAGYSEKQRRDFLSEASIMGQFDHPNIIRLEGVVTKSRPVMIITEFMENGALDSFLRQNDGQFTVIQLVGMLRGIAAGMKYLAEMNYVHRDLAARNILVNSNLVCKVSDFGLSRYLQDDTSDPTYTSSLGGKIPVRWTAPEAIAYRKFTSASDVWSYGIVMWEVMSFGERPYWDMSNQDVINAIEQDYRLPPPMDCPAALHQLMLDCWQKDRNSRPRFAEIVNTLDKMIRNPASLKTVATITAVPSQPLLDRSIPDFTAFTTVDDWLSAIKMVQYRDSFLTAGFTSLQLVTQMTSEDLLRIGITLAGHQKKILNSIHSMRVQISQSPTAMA
FGFR3, sequence (P22607 whole entry, looked up): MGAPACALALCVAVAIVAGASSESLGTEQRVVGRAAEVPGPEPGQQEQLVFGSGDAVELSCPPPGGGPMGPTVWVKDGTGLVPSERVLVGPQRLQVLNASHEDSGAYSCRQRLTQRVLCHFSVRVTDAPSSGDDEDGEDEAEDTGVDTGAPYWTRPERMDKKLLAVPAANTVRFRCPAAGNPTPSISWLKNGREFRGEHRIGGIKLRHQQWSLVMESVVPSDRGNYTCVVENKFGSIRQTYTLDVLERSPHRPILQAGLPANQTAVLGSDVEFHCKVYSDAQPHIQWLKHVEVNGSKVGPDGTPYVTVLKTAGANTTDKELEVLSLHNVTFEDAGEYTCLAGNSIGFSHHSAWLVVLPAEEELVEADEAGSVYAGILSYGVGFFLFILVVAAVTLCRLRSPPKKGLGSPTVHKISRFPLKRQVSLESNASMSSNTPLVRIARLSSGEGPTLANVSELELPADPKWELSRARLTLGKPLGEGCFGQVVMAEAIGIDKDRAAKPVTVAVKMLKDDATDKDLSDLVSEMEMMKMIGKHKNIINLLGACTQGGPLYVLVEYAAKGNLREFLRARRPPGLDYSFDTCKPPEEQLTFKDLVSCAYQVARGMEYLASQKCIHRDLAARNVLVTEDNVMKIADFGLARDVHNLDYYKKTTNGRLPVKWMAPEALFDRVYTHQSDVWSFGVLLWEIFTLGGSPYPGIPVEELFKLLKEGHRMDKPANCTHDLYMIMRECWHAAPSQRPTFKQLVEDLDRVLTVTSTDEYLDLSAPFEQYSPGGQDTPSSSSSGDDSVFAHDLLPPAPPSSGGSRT
Jak2, sequence (O60674 whole entry, looked up): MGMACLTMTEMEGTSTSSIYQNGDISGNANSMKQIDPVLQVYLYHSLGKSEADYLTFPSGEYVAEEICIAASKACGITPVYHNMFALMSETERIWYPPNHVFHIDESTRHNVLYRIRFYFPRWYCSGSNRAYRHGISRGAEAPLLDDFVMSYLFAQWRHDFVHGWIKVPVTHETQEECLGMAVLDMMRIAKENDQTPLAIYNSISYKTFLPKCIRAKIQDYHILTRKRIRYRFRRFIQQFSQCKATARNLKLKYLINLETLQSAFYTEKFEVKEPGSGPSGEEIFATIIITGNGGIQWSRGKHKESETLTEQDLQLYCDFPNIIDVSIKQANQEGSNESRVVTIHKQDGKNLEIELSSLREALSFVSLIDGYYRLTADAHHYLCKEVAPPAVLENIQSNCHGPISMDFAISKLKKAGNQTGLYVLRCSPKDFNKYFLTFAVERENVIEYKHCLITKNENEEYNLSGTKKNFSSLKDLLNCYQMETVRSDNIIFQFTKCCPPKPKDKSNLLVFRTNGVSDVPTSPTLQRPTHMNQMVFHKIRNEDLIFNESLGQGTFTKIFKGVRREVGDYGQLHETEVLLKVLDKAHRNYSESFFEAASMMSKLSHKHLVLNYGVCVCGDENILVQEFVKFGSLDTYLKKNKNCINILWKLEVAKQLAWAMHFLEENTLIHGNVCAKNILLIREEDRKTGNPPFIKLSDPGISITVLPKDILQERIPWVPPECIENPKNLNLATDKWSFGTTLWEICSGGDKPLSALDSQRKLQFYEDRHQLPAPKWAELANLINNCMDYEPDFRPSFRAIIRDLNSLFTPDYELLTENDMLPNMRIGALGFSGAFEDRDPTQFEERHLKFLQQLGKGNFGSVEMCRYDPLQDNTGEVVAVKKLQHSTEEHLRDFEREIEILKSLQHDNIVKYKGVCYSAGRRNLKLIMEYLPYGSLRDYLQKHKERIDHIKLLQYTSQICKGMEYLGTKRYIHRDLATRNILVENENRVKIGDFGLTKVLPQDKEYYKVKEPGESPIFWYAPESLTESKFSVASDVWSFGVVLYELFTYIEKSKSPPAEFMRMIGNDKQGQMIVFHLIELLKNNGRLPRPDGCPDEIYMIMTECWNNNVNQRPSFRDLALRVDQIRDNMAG
Fyn, sequence (P06241 whole entry, looked up): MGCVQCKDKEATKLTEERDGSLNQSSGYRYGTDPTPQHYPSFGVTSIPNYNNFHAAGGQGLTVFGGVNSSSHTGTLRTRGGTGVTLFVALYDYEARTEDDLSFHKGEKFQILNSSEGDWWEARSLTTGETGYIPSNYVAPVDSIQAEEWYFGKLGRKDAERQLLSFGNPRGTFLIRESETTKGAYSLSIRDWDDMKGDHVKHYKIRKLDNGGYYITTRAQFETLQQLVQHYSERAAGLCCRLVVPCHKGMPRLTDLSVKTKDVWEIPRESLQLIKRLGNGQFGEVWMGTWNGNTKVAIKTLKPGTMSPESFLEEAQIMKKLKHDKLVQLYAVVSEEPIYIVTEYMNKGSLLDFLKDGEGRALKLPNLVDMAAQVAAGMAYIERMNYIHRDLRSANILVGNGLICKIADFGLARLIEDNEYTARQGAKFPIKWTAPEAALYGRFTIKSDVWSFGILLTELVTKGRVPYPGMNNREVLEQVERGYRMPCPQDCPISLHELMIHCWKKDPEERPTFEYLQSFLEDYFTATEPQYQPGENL
FGFR1, sequence (P11362 whole entry, looked up): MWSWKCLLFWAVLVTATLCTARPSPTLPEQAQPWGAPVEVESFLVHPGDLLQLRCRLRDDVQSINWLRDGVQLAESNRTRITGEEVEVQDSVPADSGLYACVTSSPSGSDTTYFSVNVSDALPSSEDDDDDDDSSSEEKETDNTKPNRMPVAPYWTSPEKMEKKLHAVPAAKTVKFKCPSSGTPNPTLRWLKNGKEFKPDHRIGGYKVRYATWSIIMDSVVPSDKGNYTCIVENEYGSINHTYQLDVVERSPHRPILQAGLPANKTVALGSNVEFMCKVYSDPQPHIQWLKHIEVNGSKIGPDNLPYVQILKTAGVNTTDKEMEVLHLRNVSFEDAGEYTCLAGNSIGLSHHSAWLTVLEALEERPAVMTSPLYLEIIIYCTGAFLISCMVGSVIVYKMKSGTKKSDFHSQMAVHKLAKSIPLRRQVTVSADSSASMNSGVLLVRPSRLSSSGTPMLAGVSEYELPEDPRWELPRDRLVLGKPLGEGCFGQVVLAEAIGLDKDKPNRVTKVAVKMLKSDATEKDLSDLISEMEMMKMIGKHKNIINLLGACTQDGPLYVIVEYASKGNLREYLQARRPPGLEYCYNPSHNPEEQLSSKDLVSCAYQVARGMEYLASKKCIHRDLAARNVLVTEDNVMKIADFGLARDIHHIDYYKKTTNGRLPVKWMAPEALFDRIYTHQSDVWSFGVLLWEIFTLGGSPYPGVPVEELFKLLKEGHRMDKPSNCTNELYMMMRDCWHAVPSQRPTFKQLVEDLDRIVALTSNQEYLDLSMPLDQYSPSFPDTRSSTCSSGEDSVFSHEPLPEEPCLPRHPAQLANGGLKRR

| SH2 binding enrichment (Grb2 SH2) | SH2 binding enrichment (SHP2-C SH2) | SH2 binding enrichment (c-Src SH2) | Sequence | phosphorylation enrichment (FGFR1) | phosphorylation enrichment (EPHB2) | phosphorylation enrichment (Fer (mouse)) | phosphorylation enrichment (Jak2) | phosphorylation enrichment (Fes) | phosphorylation enrichment (MERTK) | phosphorylation enrichment (EPHB1) | phosphorylation enrichment (Fyn) | phosphorylation enrichment (c-Abl (mouse)) | phosphorylation enrichment (c-Src) | phosphorylation enrichment (Hck) | phosphorylation enrichment (FGFR3) | phosphorylation enrichment (AncSZ) |
| --- | --- | --- | --- | --- | --- | --- | --- | --- | --- | --- | --- | --- | --- | --- | --- | --- |
| 1.13 | 0.726 | 0.608 | SVVEPYEPPEV [TP53_Y220_V218E] | 0.521 | 0.533 | 0.462 | 0.985 | 1.1 | 0.442 | 0.541 | 0.741 | 0.601 | 0.4 | 0.472 | 0.654 | 1.29 |
| 0.796 | 0.688 | 1.1 | DSYSSYCNAVA [SLC20A2_Y436] | 0.904 | 0.995 | 0.687 | 0.859 | 1.23 | 0.788 | 0.729 | 0.819 | 0.771 | 0.84 | 0.788 | 0.664 | 1.44 |
| 0.795 | 0.66 | 0.456 | LLTKVYVVEGS [ZMPSTE24_Y253_P248L] | 0.9 | 0.994 | 0.819 | 1.23 | 2 | 0.668 | 0.816 | 0.586 | 0.773 | 0.657 | 0.795 | 1.23 | 1.65 |
| 0.878 | 0.5 | 3.98 | APTSGYQEFIH [IL4R_Y575_V579I] | 0.572 | 0.582 | 0.416 | 0.684 | 0.82 | 0.429 | 0.424 | 0.504 | 0.527 | 0.442 | 0.461 | 0.679 | 0.717 |
| 1.1 | 0.622 | 1.01 | RLQEGYDHSFF [ESD_Y258_YF] | 0.52 | 0.364 | 0.422 | 0.85 | 0.794 | 0.538 | 0.457 | 0.427 | 0.728 | 0.824 | 0.508 | 0.57 | 1.12 |
| 0.928 | 0.435 | 0.617 | AGEGTYALDSE [PES1_Y265] | 0.484 | 0.511 | 0.5 | 0.878 | 1.04 | 0.434 | 0.576 | 0.984 | 0.816 | 0.935 | 0.528 | 0.643 | 0.972 |
| 0.881 | 1.01 | 0.482 | KLVQLYVVCTK [BTK_Y461_G462V] | 0.565 | 0.523 | 0.584 | 1.2 | 1.16 | 0.45 | 0.809 | 0.416 | 0.928 | 0.486 | 0.528 | 0.785 | 1.3 |
| 1.16 | 1.27 | 1.21 | CEHRGHLYLAI [TEK_Y897_Y897H] | 0.646 | 0.441 | 0.537 | 0.833 | 1.28 | 0.374 | 0.665 | 0.908 | 0.676 | 0.377 | 0.417 | 0.722 | 1.07 |
| 0.688 | 1.12 | 0.698 | QRHYVYYYSYL [PTEN_Y176_R173H] | 7.4 | 2.16 | 1.29 | 5.22 | 1.91 | 8.74 | 3.51 | 3.5 | 1.84 | 5.11 | 3.31 | 6.74 | 1.79 |
| 0.74 | 0.746 | 0.528 | TGQEDYDRLRP [RAC1_Y64_A59T] | 0.754 | 0.94 | 0.563 | 1.02 | 1.17 | 0.498 | 0.781 | 0.756 | 0.778 | 0.603 | 0.836 | 0.732 | 1.34 |
| 0.723 | 0.596 | 0.552 | SRGLAYPARSA [LEMD2_Y122_P126S] | 0.288 | 0.334 | 0.381 | 0.312 | 0.529 | 0.35 | 0.244 | 0.316 | 0.382 | 0.431 | 0.25 | 0.275 | 0.501 |
| 0.799 | 1.21 | 0.615 | PFTRNYYVRAV [CYBA_Y87] | 0.704 | 1.41 | 0.422 | 0.85 | 1.29 | 0.608 | 0.753 | 0.614 | 0.747 | 0.558 | 0.666 | 0.792 | 1.16 |
| 1.07 | 1.33 | 2.44 | HYMELYDLNRD [BBS2_Y648_R643H] | 3.57 | 1.45 | 1.28 | 1.22 | 1.22 | 4.26 | 2.98 | 2.58 | 0.862 | 6.4 | 2.89 | 2.94 | 1.5 |
| 0.987 | 0.957 | 1.26 | GLIPAYHRVIV [NMNAT1_Y64_M69V] | 0.627 | 0.453 | 0.44 | 1.15 | 0.933 | 0.437 | 0.515 | 0.458 | 0.622 | 0.371 | 0.481 | 0.639 | 0.804 |
| 1.15 | 0.942 | 0.691 | LQRCKNSHMEP [TEX45_Y434_Y434N] | 0.958 | 0.848 | 0.782 | 0.9 | 0.865 | 0.809 | 0.939 | 0.956 | 0.641 | 0.747 | 0.741 | 0.729 | 0.599 |
| 0.825 | 0.702 | 0.528 | IYRASYYRKGG [ALK_Y1282] | 0.414 | 0.481 | 0.45 | 0.753 | 0.622 | 0.621 | 0.419 | 0.513 | 0.676 | 0.557 | 0.476 | 0.403 | 0.615 |
| 0.676 | 0.708 | 0.364 | LSSEMYVKSFT [F5_Y2149_YF] | 1.15 | 0.788 | 0.837 | 0.965 | 1.27 | 0.641 | 0.609 | 0.647 | 0.684 | 0.307 | 0.933 | 0.975 | 1.35 |

| SH2 binding enrichment (Grb2 SH2) | SH2 binding enrichment (SHP2-C SH2) | SH2 binding enrichment (c-Src SH2) | Sequence | phosphorylation enrichment (FGFR1) | phosphorylation enrichment (EPHB2) | phosphorylation enrichment (Fer (mouse)) | phosphorylation enrichment (Jak2) | phosphorylation enrichment (Fes) | phosphorylation enrichment (MERTK) | phosphorylation enrichment (EPHB1) | phosphorylation enrichment (Fyn) | phosphorylation enrichment (c-Abl (mouse)) | phosphorylation enrichment (c-Src) | phosphorylation enrichment (Hck) | phosphorylation enrichment (FGFR3) | phosphorylation enrichment (AncSZ) |
| --- | --- | --- | --- | --- | --- | --- | --- | --- | --- | --- | --- | --- | --- | --- | --- | --- |
| 0.752 | 0.563 | 0.475 | ENSLDYGSAWA [AR_Y395_P392S] | 0.467 | 0.677 | 0.457 | 0.864 | 0.975 | 0.462 | 0.486 | 0.556 | 0.638 | 0.514 | 0.566 | 0.591 | 1.04 |
| 0.767 | 0.756 | 0.605 | PIQLFYTRKNT [GHR_Y86_R89K] | 0.718 | 0.835 | 1.27 | 1.86 | 1.62 | 0.846 | 0.65 | 1.04 | 0.916 | 1.39 | 1.18 | 0.967 | 4.3 |
| 1.07 | 1.12 | 0.821 | RLRIDYERVSQ [DSP_Y1542] | 0.543 | 0.613 | 0.702 | 1.01 | 1.46 | 0.539 | 1.25 | 0.43 | 0.742 | 0.412 | 0.531 | 0.878 | 1.08 |
| 0.699 | 0.703 | 0.434 | IGEGTYGTVFK [CDK5_Y15] | 0.515 | 2.08 | 1.41 | 0.788 | 0.793 | 0.825 | 0.989 | 10.4 | 0.676 | 6.34 | 9.06 | 0.58 | 0.707 |
| 0.778 | 0.653 | 0.526 | ADCRFYAFPQM [GAMT_Y223_YF] | 0.719 | 3.79 | 6.04 | 1.45 | 1.57 | 7.18 | 3.25 | 0.76 | 2.39 | 1.35 | 0.92 | 1.03 | 2.44 |
| 1.5 | 1.61 | 1.27 | IVFVIYDEVVK [SLC25A1_Y297] | 0.53 | 2.01 | 0.708 | 1.26 | 1.19 | 0.576 | 1.9 | 1.03 | 0.888 | 0.855 | 1.44 | 0.863 | 1.16 |
| 0.763 | 0.588 | 0.471 | CPEASYNRSPI [PTAR1_Y42_R41S] | 0.58 | 0.565 | 0.825 | 0.882 | 1.09 | 0.585 | 0.602 | 0.489 | 0.781 | 0.528 | 0.521 | 0.701 | 0.82 |
| 0.802 | 0.548 | 0.444 | KFDLMYAKRAF [TUBA1A_Y399] | 0.465 | 0.536 | 0.442 | 0.667 | 0.921 | 0.414 | 0.535 | 0.434 | 0.544 | 0.409 | 0.463 | 0.589 | 0.905 |
| 0.969 | 0.585 | 0.571 | PIMSFYAALID [RYR1_Y2426_A2421P] | 0.706 | 1.24 | 0.734 | 1.54 | 1.46 | 0.732 | 1.45 | 0.49 | 0.905 | 0.487 | 0.647 | 1.33 | 1.58 |
| 1.09 | 0.916 | 0.593 | LLQKTYNFNVL [SLC4A1_Y553_P548L_YF] | 0.889 | 0.984 | 1.05 | 0.81 | 1.2 | 0.997 | 0.909 | 0.749 | 0.77 | 0.594 | 0.88 | 1.24 | 1.41 |
| 0.682 | 1.48 | 1.59 | YSGLAYTMERS [GLUD1_Y512_H507Y] | 0.463 | 0.355 | 0.398 | 0.873 | 0.833 | 0.849 | 0.386 | 1.09 | 0.607 | 1.43 | 1.64 | 0.558 | 0.765 |
| 0.825 | 0.644 | 0.425 | DRVALYVAREG [AACS_Y117_I118V] | 0.503 | 0.763 | 0.498 | 0.823 | 1.01 | 0.291 | 0.621 | 0.467 | 0.589 | 0.367 | 0.68 | 0.705 | 0.8 |
| 0.945 | 0.942 | 0.709 | QPRDIYHQTWA [GBA_Y244_G241R] | 2.91 | 0.627 | 0.526 | 0.787 | 0.913 | 3.54 | 0.574 | 1.77 | 1.15 | 1.99 | 2.72 | 1.38 | 0.821 |
| 0.861 | 0.747 | 0.45 | NPPGMHPVTGP [LPP_Y346_Y346H] | 0.361 | 0.332 | 0.286 | 0.474 | 0.516 | 0.35 | 0.299 | 0.353 | 0.997 | 0.358 | 0.28 | 0.331 | 0.534 |
| 0.928 | 0.887 | 0.553 | ACQGKYTPSSQ [ALDOA_Y343_G347S] | 0.362 | 0.389 | 0.425 | 0.421 | 0.579 | 0.404 | 0.346 | 0.433 | 0.392 | 0.449 | 0.417 | 0.466 | 0.542 |
| 1.03 | 1.2 | 0.92 | KHVMPYAANKN [GRIN2A_Y1431_E1426K] | 0.401 | 0.43 | 0.374 | 0.443 | 0.511 | 0.383 | 0.301 | 0.345 | 0.484 | 0.36 | 0.332 | 0.387 | 0.547 |
